Measured values: paper PMC10175771

Biological target: P. falciparum cytochrome c-2 (PF3D7_1311700), recombinant, hemylated, N-terminal His6 tag (P. falciparum) (UniProt Q8I6T6)
Test: crystal structure

Q: With “P. falciparum cytochrome c-2 (PF3D7_1311700), recombinant, hemylated, N-terminal His6 tag (from UniProt Q8I6T6 1-159) (natural protein)” as the substance, how does the stoichiometry N read?
A: 2
